Results: PMC6858856
Like-named read-outs stand apart in the source and are kept apart here.

Assays:
[1] = biological target: FANCB-FAAP100 heterodimer (Gallus gallus) (Gallus gallus); assay: cryo-EM structure
[2] = biological target: FANCB-FAAP100 heterodimer (Gallus gallus) (Gallus gallus); assay: cryo-EM structure; remark: listed apart in the source

stoichiometry N [1]: 2
stoichiometry N [2]: 2
Substance: FANCB-FAAP100 heterodimer (Gallus gallus) (complex)
